Results taken from patent US20240335558A1, “ISOLATED POLYPEPTIDE AND USE THEREOF” (GLYCO-THERAPY BIOTECHNOLOGY CO., LTD., priority 2021, published 2024).

What was measured:
Format in all cases: biochemical
[1] = system: Trastuzumab-(Fucα1,6)(Galβ1,4)GlcNAc; experiment: Transfer of GDP-FAmP4Biotin to Trastuzumab-(Fucα1,6)(Galβ1,4)GlcNAc by different HpFTs; settings: donor GDP-FAmP4Biotin 1 mM, enzyme 0.5 mg/mL, 30° C., 1 h; FIG. 2
Description: (§1) To 40 mM Tris-HCl (pH 7.5) buffer were added Trastuzumab-(Fucα1,6)(Galβ1,4)GlcNAc (2 mg/mL final), GDP-FAmP4Biotin (1 mM final), MgCl2 (20 mM final), and different HpFT enzymes (HpFT-4HR, HpFT-4HR(M4), HpFT-4HR(M7), HpFT-6HR, HpFT-3HR, HpFT-2HR, HpFT-1HR or HpFT-0HR) (0.5 mg/mL final) in sequence, and the resulting mixed solution was allowed to react at 30° C. for 1 h. Three parallels were set up for each group. After the reaction time point was reached, to the reaction solution was added 10 mM LacNA, and the reaction was terminated by a desalting column (Zeba™ Spin Desalting Columns/2 ml/40K, Thermo Fisher Scientific), and finally mass spectrometry was carried out and % of conversion was calculated. % of conversion=(MAR0 peak intensity*0+MAR1peak intensity*1+MAR2 peak intensity*2)/2* (MAR0 peak intensity+MAR1 peak intensity+MAR2 peak intensity)*100%.

[2] = system: Trastuzumab-(Fucα1,6)(GalNAzβ1,4)GlcNAc; experiment: Transfer of GDP-FAmP4Biotin to Trastuzumab-(Fucα1,6)(GalNAzβ1,4)GlcNAc by different HpFTs; settings: donor GDP-FAmP4Biotin 1 mM, enzyme 0.5 mg/mL, 30° C., 3 h; FIG. 3
[3] = system: Trastuzumab-(GalNAzβ1,4)GlcNAc; experiment: Transfer of GDP-FAmP4Biotin to Trastuzumab-(GalNAzβ1,4)GlcNAc by different HpFTs; settings: donor GDP-FAmP4Biotin 1 mM, enzyme 0.5 mg/mL, 30° C., 3 h; FIG. 4
[4] = system: Trastuzumab-(GalNAzβ1,4)GlcNAc; experiment: HpFT-2HR and HpFT-4HR transferring GDP-FAmP4Biotin or GDP-FAzP4Biotin to Trastuzumab-(GalNAzβ1,4)GlcNAc; settings: enzyme 0.5 mg/mL, 6 h, FIG. 6(B)
Description: as §1
To 40 mM Tris-HCl (pH 7.5) buffer were added Trastuzumab-(GalNAzβ1,4)GlcNAc (2 mg/mL final), GDP-FAmP4Biotin or GDP-FAzP4Biotin (1 mM final), MgCl2 (20 mM final), and HpFT-2HR or HpFT-4HR (0.5 mg/mL final) in sequence, and the resulting mixed solution was allowed to react at 30 t for 6 h. Three parallels were set up for each group. After the reaction time point was reached, to the reaction solution was added 10 mM LacNAc, and the reaction was terminated by a desalting column (Zeba™ Spin Desalting Columns/2 ml/40K, Thermo Fisher Scientific), and finally mass spectrometry was carried out and % of conversion was calculated. % of conversion was calculated according to Example 18.

Trastuzumab-G2F = experiment: HpFT-2HR and HpFT-4HR transferring GDP-FAmSucMMAE to Trastuzumab-G2F; settings: donor 1 mM, enzyme 0.5 mg/mL, 30° C., 3 h and 6 h; FIG. 7A
Description: To 40 mM Tris-HCl (pH 7.5) buffer were added Trastuzumab-G2F (2 mg/mL final), GDP-FAmP4Biotin (1 mM final), MgCl2 (20 mM final), and different HpFT enzymes (HpFT-4HR, HpFT-4HR(M4), HpFT-4HR(M7), HpFT-6HR, HpFT-3HR, HpFT-2HR, HpFT-1HR, or HpFT-0HR) (0.5 mg/mL final) in sequence, and the resulting mixed solution was allowed to react at 30° C. for 3 h. Three parallels were set up for each group. After the reaction time point was reached, to the reaction solution was added 10 mM LacNAc (N-acetyl-D-lactosamine), and the reaction was terminated by a desalting column (Zeba™ Spin Desalting Columns/2 ml/40K, Thermo Fisher Scientific), and finally mass spectrometry was carried out and % of conversion was calculated. % of conversion=(MAR0 peak intensity*0+MAR1peak intensity*1+MAR2 peak intensity*2+MAR3 peak intensity*3+MAR4 peak intensity*4)/4* (MAR0 peak intensity+MAR1 peak intensity+MAR2 peak intensity+MAR3 peak intensity+MAR4 peak intensity)*100%.
To 40 mM Tris-HCl (pH 7.5) buffer were added Trastuzumab-G2F or Durvalumab-G2F (2 mg/mL final), GDP-FAmSucMMAE (1 mM final), MgCl2 (20 mM final), and HpFT-2HR or HpFT-4HR (0.5 mg/mL final) in sequence, and the resulting mixed solution was allowed to react at 30° C. for 3 h and 6 h. Three parallels were set up for each group. […]

[5] = system: Durvalumab-(GalNAzβ1,4)GlcNAc; experiment: HpFT-2HR and HpFT-4HR transferring GDP-FAmSucMMAE to Durvalumab-(GalNAzβ1,4)GlcNAc; settings: donor 1 mM, enzyme 0.5 mg/mL, 30° C., 3 h and 6 h; FIG. 8B
Description: as §1
To 40 mM Tris-HCl (pH 7.5) buffer were added Trastuzumab-(GalNAzβ1,4)GlcNAc or Durvalumab-(GalNAzβ1,4)GlcNAc (2 mg/mL final), GDP-FAmSucMMAE (1 mM final), MgCl2 (20 mM final), and HpFT-2HR or HpFT-4HR (0.5 mg/mL final) in sequence, and the resulting mixed solution was allowed to react at 30° C. for 3 h and 6 h. Three parallels were set up for each group. […]

[6] = system: Trastuzumab-(Galβ1,4)GlcNAc; experiment: HpFT-2HR and HpFT-4HR transferring GDP-FAmSucMMAE to Trastuzumab-(Galβ1,4)GlcNAc; settings: donor 1 mM, enzyme 0.5 mg/mL, 30° C., 1 h and 2 h; FIG. 9
Description: as §1
To 40 mM Tris-HCl (pH 7.5) buffer were added Trastuzumab-(Galβ1,4)GlcNAc (2 mg/mL final), GDP-FAmSucMMAE (1 mM final), MgCl2 (20 mM final), and HpFT-2HR or HpFT-4HR (0.5 mg/mL final) in sequence, and the resulting mixed solution was allowed to react at 30° C. for 1 h and 2 h. Three parallels were set up for each group. […]

B1: HpFT-2HR: H. pylori α-1,3-fucosyltransferase variant: catalytically active domain, two heptapeptide repeat sequences and C-terminus fused His tag (protein)
chain: MFQPLLDAFIESASIEKMVSKSPPPPLKIAVANWWGDEEIKEFKKSVLYFILSQRYAITLHQNPNESSDLVFSNPLGAARKILSYQNTKRVFYTGENESPNFNLFDYAIGFDELDFNDRYLRMPLYYAHLHYEAELVNDTTAPYKLKDNSLYALKKPSHHFKENHPNLCAVVNDESDLLKRGFASFVASNANAPMRNAFYDALNSIEPVTGGGSVRNTLGYKVGNKSEFLSQYKFNLCFENSQGYGYVTEKILDAYFSHTIPIYWGSPSVAKDFNPKSFVNVHDFNNFDEAIDYIKYLHTHPNAYLDMLYENPLNTLDGKAYFYQDLSFKKILDFFKTILENDTIYHNNPFIFYRDLHEPLISIDDLRVNYDDLRVNYLEHHHHHH
modifications: Catalytically active domain of Helicobacter pylori Alpha-(1,3)-fucosyltransferase (GenBank No.AAD07710.1) with 2 heptapeptide repeats and a C-terminal His tag
catalytic activity as compared with HpFT-4HR (% of conversion) [1]: significantly improved catalytic activity
catalytic activity among the HpFT variants [2]: relatively high catalytic activity
catalytic activity as compared with HpFT-4HR (% of conversion) [2]: significantly improved catalytic activity
catalytic activity among the HpFT variants [3]: relatively high catalytic activity
catalytic activity as compared with HpFT-4HR (% of conversion) [3]: significantly improved catalytic activity
activity in catalyzing the transfer of GDP-FAmP4Biotin relative to transfer of GDP-FAzP4Biotin ([4]; donor 1 mM): significantly higher
activity in catalyzing the transfer of GDP-FAmP4Biotin, as compared with HpFT-4HR ([4]; donor GDP-FAmP4Biotin 1 mM): significantly improved activity
activity in catalyzing the transfer of GDP-FAzP4Biotin, as compared with HpFT-4HR ([4]; donor GDP-FAzP4Biotin 1 mM): significantly improved activity
activity in catalyzing the transfer of GDP-FAmSucMMAE, as compared with HpFT-4HR (Trastuzumab-G2F): significantly improved activity
activity in catalyzing the transfer of GDP-FAmSucMMAE, as compared with HpFT-4HR [5]: significantly improved activity
activity in catalyzing the transfer of GDP-FAmSucMMAE, as compared with HpFT-4HR [6]: significantly improved activity
